Here are results for 94 variants from the supplement of paper PMC10567573.

B1: MTMR15 (parent)
chain: YVKAKKSIDKDEEFAGSSPQSSKS
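Further: lentivirally expressed fusions sorted by FACS into six bins by GFP to DsRed ratio, PSI derived from sequencing read proportions per bin multiplied by bin number.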

The variants in this data set derive from B1. As to the kind of experiment: protein stability index of a GFP-peptide fusion (GPS, HEK-293T) (PSI 1-6); higher = more stable. Conditions: c terminus: a fixed tail appended.
Turning to YVKAKKSIDGDEEFAGSSPQSSKS [K10G], the protein stability index came to 3.28.
For the variant YVKAKKSIDADEEFAGSSPQSSKS [K10A], the protein stability index is 3.63.
For YVKAKKSIDWDEEFAGSSPQSSKS [K10W], the protein stability index is 2.96.
As to YVKAKKSIDHDEEFAGSSPQSSKS [K10H], the protein stability index amounted to 3.61.
Take YVKAKKSIDSDEEFAGSSPQSSKS [K10S]: the protein stability index was 3.25.
With YVKAKKSIDTDEEFAGSSPQSSKS [K10T], the protein stability index was 3.28.
YVKAKKSIDFDEEFAGSSPQSSKS [K10F]: the protein stability index stood at 2.26.
As for YVKAKKSIDIDEEFAGSSPQSSKS [K10I], the protein stability index was 3.21.
For YVKAKKSIDNDEEFAGSSPQSSKS [K10N] the value was 2.92.
For YVKAKKSIDRDEEFAGSSPQSSKS [K10R], the protein stability index is 3.25.
Take YVKAKKSIDCDEEFAGSSPQSSKS [K10C]: the protein stability index is 3.27.
YVKAKKSIDMDEEFAGSSPQSSKS [K10M]: the protein stability index turned out to be 3.36.
YVKAKKSIDLDEEFAGSSPQSSKS [K10L]: the protein stability index was 3.05.
YVKAKKSIDEDEEFAGSSPQSSKS [K10E]: the protein stability index is 3.26.
Consider YVKAKKSIDYDEEFAGSSPQSSKS [K10Y], for which the protein stability index is 2.72.
With YVKAKKSIDVDEEFAGSSPQSSKS [K10V], the protein stability index is 3.24.
YVKAKKSIDPDEEFAGSSPQSSKS [K10P]: the protein stability index was found to be 3.55.
As to YVKAKKSIDDDEEFAGSSPQSSKS [K10D], the protein stability index worked out at 3.42.
For YVKAKKSIDQDEEFAGSSPQSSKS [K10Q], the protein stability index stood at 2.67.
As to YVKAKKSIAKDEEFAGSSPQSSKS [D9A], the protein stability index was found to be 2.92.
As for YVKAKKSIYKDEEFAGSSPQSSKS [D9Y], the protein stability index amounted to 2.44.
For YVKAKKSIGKDEEFAGSSPQSSKS [D9G], the protein stability index worked out at 2.95.
As for YVKAKKSINKDEEFAGSSPQSSKS [D9N], the protein stability index was 2.61.
On to YVKAKKSIMKDEEFAGSSPQSSKS [D9M], for which the protein stability index was 3.01.
YVKAKKSICKDEEFAGSSPQSSKS [D9C]: the protein stability index was 2.98.
For YVKAKKSIEKDEEFAGSSPQSSKS [D9E] the value was 2.9; for YVKAKKSIKKDEEFAGSSPQSSKS [D9K], 2.45.
With YVKAKKSIRKDEEFAGSSPQSSKS [D9R], the protein stability index worked out at 3.05.
YVKAKKSILKDEEFAGSSPQSSKS [D9L]: the protein stability index is 2.76.
For the variant YVKAKKSISKDEEFAGSSPQSSKS [D9S], the protein stability index came out at 2.69.
YVKAKKSIVKDEEFAGSSPQSSKS [D9V]: the protein stability index came out at 2.77.
The result for YVKAKKSIFKDEEFAGSSPQSSKS [D9F] reads 1.92; that for YVKAKKSIPKDEEFAGSSPQSSKS [D9P], 2.83; that for YVKAKKSIHKDEEFAGSSPQSSKS [D9H], 3.27.
As for YVKAKKSIIKDEEFAGSSPQSSKS [D9I], the protein stability index amounted to 2.73.
On to YVKAKKSITKDEEFAGSSPQSSKS [D9T], for which the protein stability index was 2.91.
Regarding YVKAKKSIWKDEEFAGSSPQSSKS [D9W], the protein stability index is 1.61.
For YVKAKKSIQKDEEFAGSSPQSSKS [D9Q] the value was 2.76.
As to YVKAKKSIDKWEEFAGSSPQSSKS [D11W], the protein stability index is 2.31.
On to YVKAKKSIDKFEEFAGSSPQSSKS [D11F], for which the protein stability index amounted to 2.48.
Consider YVKAKKSIDKSEEFAGSSPQSSKS [D11S], for which the protein stability index worked out at 3.05.
With YVKAKKSIDKTEEFAGSSPQSSKS [D11T], the protein stability index amounted to 2.5.
The result for YVKAKKSIDKHEEFAGSSPQSSKS [D11H] reads 2.92.
The result for YVKAKKSIDKGEEFAGSSPQSSKS [D11G] reads 2.88; that for YVKAKKSIDKIEEFAGSSPQSSKS [D11I], 2.57.
Turning to YVKAKKSIDKNEEFAGSSPQSSKS [D11N], the protein stability index came to 2.87.
For the variant YVKAKKSIDKYEEFAGSSPQSSKS [D11Y], the protein stability index came out at 2.77.
Take YVKAKKSIDKEEEFAGSSPQSSKS [D11E]: the protein stability index came to 2.85.
Consider YVKAKKSIDKMEEFAGSSPQSSKS [D11M], for which the protein stability index turned out to be 2.56.
Take YVKAKKSIDKAEEFAGSSPQSSKS [D11A]: the protein stability index amounted to 2.83.
For YVKAKKSIDKREEFAGSSPQSSKS [D11R] the value was 2.45; for YVKAKKSIDKCEEFAGSSPQSSKS [D11C], 2.71; for YVKAKKSIDKQEEFAGSSPQSSKS [D11Q], 2.94.
As to YVKAKKSIDKLEEFAGSSPQSSKS [D11L], the protein stability index stood at 2.46.
For the variant YVKAKKSIDKVEEFAGSSPQSSKS [D11V], the protein stability index stood at 2.72.
As to YVKAKKSIDKPEEFAGSSPQSSKS [D11P], the protein stability index is 2.56.
For YVKAKKSIDKKEEFAGSSPQSSKS [D11K] the value was 2.64; for YVKAKKSLDKDEEFAGSSPQSSKS [I8L], 3.07; for YVKAKKSGDKDEEFAGSSPQSSKS [I8G], 3.64.
As to YVKAKKSPDKDEEFAGSSPQSSKS [I8P], the protein stability index was 3.77.
The result for YVKAKKSYDKDEEFAGSSPQSSKS [I8Y] reads 2.99; that for YVKAKKSWDKDEEFAGSSPQSSKS [I8W], 3.22; that for YVKAKKSDDKDEEFAGSSPQSSKS [I8D], 3.7.
For YVKAKKSTDKDEEFAGSSPQSSKS [I8T], the protein stability index was 3.22.
As to YVKAKKSRDKDEEFAGSSPQSSKS [I8R], the protein stability index was 2.98.
For the variant YVKAKKSQDKDEEFAGSSPQSSKS [I8Q], the protein stability index stood at 3.3.
As to YVKAKKSVDKDEEFAGSSPQSSKS [I8V], the protein stability index worked out at 2.97.
The result for YVKAKKSMDKDEEFAGSSPQSSKS [I8M] reads 3.22; that for YVKAKKSADKDEEFAGSSPQSSKS [I8A], 3.18; that for YVKAKKSKDKDEEFAGSSPQSSKS [I8K], 2.98.
The result for YVKAKKSCDKDEEFAGSSPQSSKS [I8C] reads 2.83; that for YVKAKKSNDKDEEFAGSSPQSSKS [I8N], 3.33; that for YVKAKKSFDKDEEFAGSSPQSSKS [I8F], 2.81.
YVKAKKSEDKDEEFAGSSPQSSKS [I8E]: the protein stability index is 3.42.
For YVKAKKSHDKDEEFAGSSPQSSKS [I8H], the protein stability index is 3.28.
For the variant YVKAKKSSDKDEEFAGSSPQSSKS [I8S], the protein stability index turned out to be 3.55.
With YVKAKKSIDKDEEFFGSSPQSSKS [A15F], the protein stability index turned out to be 1.91.
YVKAKKSIDKDEEFPGSSPQSSKS [A15P]: the protein stability index was 3.06.
YVKAKKSIDKDEEFRGSSPQSSKS [A15R]: the protein stability index was determined as 2.87.
On to YVKAKKSIDKDEEFLGSSPQSSKS [A15L], for which the protein stability index came out at 3.05.
For YVKAKKSIDKDEEFQGSSPQSSKS [A15Q] the value was 3.16; for YVKAKKSIDKDEEFSGSSPQSSKS [A15S], 2.92; for YVKAKKSIDKDEEFIGSSPQSSKS [A15I], 3.25.
The result for YVKAKKSIDKDEEFGGSSPQSSKS [A15G] reads 3.45; that for YVKAKKSIDKDEEFVGSSPQSSKS [A15V], 3.42.
Regarding YVKAKKSIDKDEEFNGSSPQSSKS [A15N], the protein stability index stood at 2.67.
As to YVKAKKSIDKDEEFCGSSPQSSKS [A15C], the protein stability index turned out to be 2.64.
For the variant YVKAKKSIDKDEEFKGSSPQSSKS [A15K], the protein stability index was determined as 2.9.
Take YVKAKKSIDKDEEFHGSSPQSSKS [A15H]: the protein stability index was 3.38.
The result for YVKAKKSIDKDEEFYGSSPQSSKS [A15Y] reads 2.14.
The result for YVKAKKSIDKDEEFTGSSPQSSKS [A15T] reads 3.08.
Turning to YVKAKKSIDKDEEFDGSSPQSSKS [A15D], the protein stability index was found to be 3.63.
Consider YVKAKKSIDKDEEFEGSSPQSSKS [A15E], for which the protein stability index is 3.31.
For YVKAKKSIDKDEEFMGSSPQSSKS [A15M], the protein stability index came to 2.44.
